Assay results reported in US20110176995A1 (Chugai, published 2011).

B1: anti-GPR49 monoclonal antibody 2J18-1N (antibody, mouse IgM, V domains shown)
VH: EVQLQQSGPELVKPGDSVKMSCKASGYTFTDYYMDWVKQSHGKSLEWIGYIYPNNGGTSYNQKFKGKATLTVDKSSSTAYMELHSLTSEDSAVYYCARPYYSNSFAYWGQGTLVTVSA
VL: QIVLTQSPAIMSASPGEKVTMTCRASSSVSSSYLHWYQQKPGSSPKLWIYSTSNLASGVPARFSGSGSGTSYSLTISSVEAEDAATYYCQQYDSSPFTFGTGTKLEIK
notes: Mouse IgM from hybridoma; light chain amplified with a kappa primer
B2: anti-GPR49 monoclonal antibody 2T15E-2 (antibody, mouse IgG1, V domains shown)
VH: EVQLVESGGGLVKPGGSLKISCAASGFTSSNYAMSWVRQTPEKRLEWVATISSGGGYTYYPDSEKGRFAISRDNAKNTLYLQMSGLRSEDTAMYYCATQLYYRSHYYSMDYWGQGSSVTVSS
VL: QIVLTQSPAIMSASPGEKVTMTCSASSSISYMHWYQQKSGTSPKRWIYDTSKLASGVPARFSGSGSGTSYSLTISSMEAEDAATYYCQQWHSKPATFGAGTKLELK
notes: Mouse IgG1 from hybridoma; light chain amplified with a kappa primer
B3: anti-GPR49 monoclonal antibody 2L36-12 (antibody, mouse IgG1, V domains shown)
VH: QVQLQQSGAELVRPGTSVKVSCKASGYDFTNYLIEWVNQRPGQGLEWIGVINPGSGGTNYNEKFKGKATLTADKSSSTAYMQLSSLTSDDSAVYLCARYSPYGNYFDYWGQGTTLTVSS
VL: DIVMTQSHKFMSTSVGDRVSITCRASQDVGTAVAWYQQKPGQSPKLLIYWASTRHTGVPDRFTGSGSGTDFTLTINNVQSEDLADYFCQQYSSYPPTFGGGTKLEIK
notes: as for B2

Key:
[1] = target: T1, HA-GPR49 (full-length human GPR49 with an HA-tag inserted at the N-terminus) (human, UniProt O75473 22-907); assay: flow cytometry, hybridoma supernatant on 2B10 cells against parental DG44
T1 construct: Expressed in DG44 cells (line 2B10) and, inducibly with doxycycline, in 293FlpIn T-Rex cells (lines B2, B4); On whole cells in flow cytometry and cytotoxicity assays; as cell lysate in Western blotting and immunoprecipitation; also called human GPR49/DG44 cells (2B10); HA-GPR49-expressing DG44 cell line 2B10; not shown: HA-tag inserted at the N-terminus of GPR49
T1 sequence: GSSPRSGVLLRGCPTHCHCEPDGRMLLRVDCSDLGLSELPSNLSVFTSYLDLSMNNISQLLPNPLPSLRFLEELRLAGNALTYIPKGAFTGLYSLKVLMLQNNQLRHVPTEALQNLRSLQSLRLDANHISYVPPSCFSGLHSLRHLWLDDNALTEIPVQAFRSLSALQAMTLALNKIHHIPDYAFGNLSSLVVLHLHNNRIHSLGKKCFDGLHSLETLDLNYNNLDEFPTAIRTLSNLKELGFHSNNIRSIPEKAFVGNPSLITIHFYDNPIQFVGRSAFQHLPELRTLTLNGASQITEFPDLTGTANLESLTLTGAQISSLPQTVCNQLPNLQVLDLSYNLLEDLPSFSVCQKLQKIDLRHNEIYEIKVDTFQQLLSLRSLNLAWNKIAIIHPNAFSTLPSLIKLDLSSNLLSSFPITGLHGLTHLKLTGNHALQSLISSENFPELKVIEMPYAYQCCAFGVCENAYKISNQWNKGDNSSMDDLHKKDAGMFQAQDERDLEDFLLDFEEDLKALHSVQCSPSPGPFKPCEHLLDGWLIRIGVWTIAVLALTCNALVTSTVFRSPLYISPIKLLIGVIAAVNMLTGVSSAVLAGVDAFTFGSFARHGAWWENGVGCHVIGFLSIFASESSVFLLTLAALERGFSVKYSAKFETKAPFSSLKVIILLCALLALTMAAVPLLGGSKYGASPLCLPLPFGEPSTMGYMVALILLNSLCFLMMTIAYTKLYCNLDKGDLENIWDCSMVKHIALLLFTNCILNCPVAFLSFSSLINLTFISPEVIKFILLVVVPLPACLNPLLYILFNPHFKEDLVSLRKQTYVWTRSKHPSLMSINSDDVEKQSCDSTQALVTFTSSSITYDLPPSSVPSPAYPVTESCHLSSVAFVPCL
Description: The binding to the human GPR49/DG44 cells (2B 10) was evaluated by flow cytometry using the obtained hybridomas. The cell lines expressing human GPR49 suspended in FACS buffer (2% FBS/PBS/0.05% NaN₃) were diluted to 1×10⁶ cells/mL with FACS buffer, and then aliquoted at 50 μL/well into a Falcon 353910 round-bottom 96-well plate. Hybridoma culture supernatant diluted to a suitable concentration was added to the wells containing the cells and reacted for 60 minutes on ice. Then, the cells were washed once with FACS buffer. Goat F(ab′)₂ fragment anti-mouse IgG(H+ L)-FITC (Beckman Coulter) was added to the wells containing the cells as a secondary antibody, and reacted for 30 minutes on ice. After reaction, the supernatant was removed by centrifugation, and then the cells suspended in 100 μL of FACS buffer were subjected to flow cytometry. A FACS Calibur (Becton Dickinson) was used for flow cytometry. The viable cell population was gated with a forward scatter-side scatter dot blot, an FL1 histogram was made of the cells contained in the population, and binding activity thereof was evaluated.
When the hybridoma supernatants were reacted with 2B 10 in which GPR49 is induced and expressed in DG44 cells and with the parental cell line DG44 respectively, hybridomas that specifically reacted with GPR49-expressing cells were obtained. The hybridomas from these wells were made into single clones by the limiting dilution method. The isotype of each antibody was analyzed using an IsoStrip™ mouse monoclonal antibody isotyping kit (Roche Diagnostics). As a result, 2J18-1N and 2J18-3 were IgM, and 2L7-8, 2L9-3, 2L10-19, 2L13-3, 2L15-12, 2L16-15, 2L18-15, 2L33-6, 2L34-5, 2L36-12, 2T4E-6, 2T9E1#14, 2T15E-2, 2T42E-4, 2T54-2, 2T65-3, 2T37-16, 2U1E-1, 2U2E-2, and 2U4E-11 were IgG1. Culturing of the hybridomas made into single clones was scaled up, and then the antibodies were purified from the culture supernatant using a protein G column in accordance with the manual. The IgM antibodies were purified using a protein L column in accordance with the manual. The purified antibodies were quantified by DC Protein Assay or such.

[2] = target: T2, human GPR49 protein (human, UniProt O75473 22-907); assay: flow cytometry, 10 ug/mL antibody on OVSAHO, Alexander and NUGC-4 cells
T2 construct: also called LGR5; GPR49 molecule
T2 sequence: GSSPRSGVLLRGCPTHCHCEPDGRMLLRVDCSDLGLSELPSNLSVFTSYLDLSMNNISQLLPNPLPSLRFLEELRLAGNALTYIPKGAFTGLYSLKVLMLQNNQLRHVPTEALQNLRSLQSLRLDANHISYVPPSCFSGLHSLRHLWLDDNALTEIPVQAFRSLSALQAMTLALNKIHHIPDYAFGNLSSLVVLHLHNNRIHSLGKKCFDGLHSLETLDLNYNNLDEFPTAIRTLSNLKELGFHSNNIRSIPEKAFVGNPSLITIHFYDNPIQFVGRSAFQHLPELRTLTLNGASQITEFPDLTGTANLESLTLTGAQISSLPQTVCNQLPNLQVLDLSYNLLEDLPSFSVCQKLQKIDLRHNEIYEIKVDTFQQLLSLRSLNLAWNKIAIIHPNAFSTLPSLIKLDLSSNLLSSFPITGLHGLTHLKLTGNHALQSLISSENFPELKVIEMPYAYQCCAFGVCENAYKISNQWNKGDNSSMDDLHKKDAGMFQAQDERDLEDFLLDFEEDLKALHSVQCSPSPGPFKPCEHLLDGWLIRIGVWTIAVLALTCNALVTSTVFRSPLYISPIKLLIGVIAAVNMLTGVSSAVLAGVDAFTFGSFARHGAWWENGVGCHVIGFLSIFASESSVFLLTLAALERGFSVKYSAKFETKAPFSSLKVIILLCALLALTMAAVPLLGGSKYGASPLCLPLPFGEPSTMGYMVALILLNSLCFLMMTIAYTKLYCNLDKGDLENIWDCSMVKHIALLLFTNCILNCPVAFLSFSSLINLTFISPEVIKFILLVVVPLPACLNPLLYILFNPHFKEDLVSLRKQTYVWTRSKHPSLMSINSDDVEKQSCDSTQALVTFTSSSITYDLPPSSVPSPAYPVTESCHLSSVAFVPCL
Description: The reactivity of 2T15E-2 antibody to human cancer cell lines were analyzed by flow cytometry. Human cancer cell lines suspended in a FACS buffer (2% FBS/PBS/0.05% NaN₃) were diluted to 1×10⁶ cells/mL with the FACS buffer, and the solutions were then dispensed into a Falcon 353910 round-bottom 96-well plate at 50 μL/well. 2T15E-2 antibody diluted to a concentration of 10 μg/mL was added, and this was reacted for 60 minutes on ice. Next, the cells were washed once with the FACS buffer. After adding Goat F(ab′)₂ fragment anti-mouse IgG (Fcγ)-FITC (Beckman Coulter) as a secondary antibody to the wells containing the cells, this was reacted for 30 minutes on ice. After the reaction, the supernatant was removed by centrifugation, and then the cells were suspended in 100 μL of FACS buffer containing propidium iodide (PI) and then subjected to flow cytometry. A FACS Calibur (Becton Dickinson) was used for the flow cytometry. The viable cell population was gated with a forward scatter-side scatter dot blot, an FL1 histogram was made of the cells contained in the population, and binding activity thereof was evaluated.
The peaks indicated with a solid line indicate the reactivity with cancer cell lines, and the shaded regions represent the peaks obtained when the reactions are carried out without antibodies. […]

| Binder | binding result [1] | binding result [2] |
| --- | --- | --- |
| B1 | binds | – |
| B2 | binds | binds |
| B3 | binds | – |
